# From publication PMC8826850 (2022)
# B1: S2-E12 (antibody, V domains shown)
# VH: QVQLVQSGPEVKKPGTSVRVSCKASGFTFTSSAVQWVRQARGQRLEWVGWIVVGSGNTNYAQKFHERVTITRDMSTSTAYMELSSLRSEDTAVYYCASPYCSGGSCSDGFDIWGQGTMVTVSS
# VL: DIVLTQTPGTLSLSPGERATLSCRASQSVSSSYLAWYQQKPGQAPRLLIYGASSRATGIPDRFSGSGSGTDFTLTISRLEPEDFAVYYCQQYVGLTGWTFGQGTKVEIK
# Target: SARS-CoV-2 HexaPro spike protein, wild type (SARS-CoV-2 wild type (GenBank …, UniProt A0A679G9E9, F817 to proline | A892 to proline | A899 to proline | A942 to proline | K986 to …))
# Assay: BLI
# Settings: both partners purified
binder,measurement,value
B1,binding result,binds
